Data as given in the RNAGym collection of RNA variant scans (doi:10.1101/gr.219683.116).

B1: mRNA-splicing (parent)
chain: AGUUGCUGCUGGGAGCUCCAGCACAGUGAAAUGGACAGAAGGGCAGAGCAA

Variants of: B1
Assay: exon inclusion enrichment index; higher = more inclusion; WT1 exon 5 minigene, HEK293

| Variant | exon inclusion enrichment index |
| --- | --- |
| G5U G8U C9U A35U | 0.0145 |
| G5U G8U C9U A35G | 0.0347 |
| G5U G8U C9U A35C | 0.0257 |
| G5U G8U C9U A23C C24A | 0.231 |
| G5U G8U C9U A23C C24U | 0.0326 |
| G5U G8U C9U A23C C24G | 0.632 |
| G5U G8U C9U A30C A31G | 0.406 |
| G5U G8U C9U A30C A31C | 0.347 |
| G5U G8U C9U A30C A31U | 0.139 |
| G5U G8U C9U A37C | 0.465 |
| G5U G8U C9U A37G | 0.303 |
| G5U G8U C9U A37U | 0.104 |
| G5U G8U C9U A29C | 0.0814 |
| G5U G8U C9U A29G | 0.246 |
| G5U G8U C9U A29U | 0.0318 |
| G5U G8U C9U A20G G21U | 0.195 |
| G5U G8U C9U A20G G21C | 0.187 |
| G5U G8U C9U A20G G21A | 0.241 |
| G5U G8U C9U C44U A45U | 0.0921 |
| G5U G8U C9U C44U A45C | 0.215 |
| G5U G8U C9U C44U A45G | 0.043 |

| Variant | exon inclusion enrichment index |
| --- | --- |
| G5U G8U C9U A39G A40G | 0.00566 |
| G5U G8U C9U A39G A40U | 0.00232 |
| G5U G8U C9U A39G A40C | 0.128 |
| G5U G8U C9U A35G C36G | 0.00476 |
| G5U G8U C9U A35G C36A | 0.0301 |
| G5U G8U C9U A35G C36U | 0.0033 |
| G5U C9A | 0.991 |
| G5U C9G | 0.253 |
| G5U C9U | 0.393 |
| G5U G8U C9U G26C | 0.177 |
| G5U G8U C9U G26A | 0.201 |
| G5U G8U C9U G26U | 0.161 |
| G5U G8U C9G | 0.267 |
| G5U G8U C9U | 0.16 |
| G5U G8U C9A | 0.194 |
| G5U G8U C9U G15U | 0.107 |
| G5U G8U C9U G15C | 0.196 |
| G5U G8U C9U G15A | 0.0439 |
| G5U G8U C9U A45U G46A | 0.0906 |
| G5U G8U C9U A45U G46U | 0.0271 |
| G5U G8U C9U A45U G46C | 0.11 |

| Variant | exon inclusion enrichment index |
| --- | --- |
| G5U G8U C9U C19G | 0.0649 |
| G5U G8U C9U C19U | 0.00467 |
| G5U G8U C9U C19A | 0.0498 |
| G5U G8U C9U A35U C36G | 0.0125 |
| G5U G8U C9U A35U C36U | 0.000565 |
| G5U G8U C9U A35U C36A | 0.00069 |
| G5U G8U C9U G13A A14G | 0.152 |
| G5U G8U C9U G13A A14U | 0.349 |
| G5U G8U C9U G13A A14C | 0.61 |
| G5U G8U C9U A23U C24A | 0.0491 |
| G5U G8U C9U A23U C24U | 0.00337 |
| G5U G8U C9U A23U C24G | 0.223 |
| G5U G8U C9U C16A U17A | 0.0994 |
| G5U G8U C9U C16A U17C | 0.0818 |
| G5U G8U C9U C16A U17G | 0.0387 |
| G5U G8C C9U | 0.417 |
| G5U G8C C9G | 1.51 |
| G5U G8C C9A | 0.689 |
| G5U G8U C9U G26U U27C | 0.729 |
| G5U G8U C9U G26U U27G | 0.458 |
| G5U G8U C9U G26U U27A | 0.0473 |

| Variant | exon inclusion enrichment index |
| --- | --- |
| G5U G8U C9U G15U C16G | 0.064 |
| G5U G8U C9U G15U C16A | 0.0344 |
| G5U G8U C9U G15U C16U | 0.0287 |
| G5U G8U C9U C22A A23U | 0.0576 |
| G5U G8U C9U C22A A23G | 0.141 |
| G5U G8U C9U C22A A23C | 0.435 |
| G5U G8U C9U G11C G12C | 0.0331 |
| G5U G8U C9U G11C G12U | 0.0163 |
| G5U G8U C9U G11C G12A | 0.0135 |
| G5U G8U C9U A40U G41U | 0.0547 |
| G5U G8U C9U A40U G41C | 0.508 |
| G5U G8U C9U A40U G41A | 0.00332 |
| G5U G8U C9U C36G A37G | 0.0302 |
| G5U G8U C9U C36G A37C | 0.0336 |
| G5U G8U C9U C36G A37U | 0.0469 |
| G5U G8U C9U A25U G26C | 0.219 |
| G5U G8U C9U A25U G26U | 0.0927 |
| G5U G8U C9U A25U G26A | 0.176 |
| G5U G8U C9U G12C G13U | 0.0014 |
| G5U G8U C9U G12C G13C | 0.00507 |
